Data on four molecules can be found in EP1007666B1 (GENENTECH, INC., dated 2005).

The target in assay [1] is T1, recombinant soluble rat GDNFRα (rat, UniProt Q62997 25-430, limits assumed).
T1 construct: also called rGDNFRα; GFR-alpha-1
T1 sequence (looked up): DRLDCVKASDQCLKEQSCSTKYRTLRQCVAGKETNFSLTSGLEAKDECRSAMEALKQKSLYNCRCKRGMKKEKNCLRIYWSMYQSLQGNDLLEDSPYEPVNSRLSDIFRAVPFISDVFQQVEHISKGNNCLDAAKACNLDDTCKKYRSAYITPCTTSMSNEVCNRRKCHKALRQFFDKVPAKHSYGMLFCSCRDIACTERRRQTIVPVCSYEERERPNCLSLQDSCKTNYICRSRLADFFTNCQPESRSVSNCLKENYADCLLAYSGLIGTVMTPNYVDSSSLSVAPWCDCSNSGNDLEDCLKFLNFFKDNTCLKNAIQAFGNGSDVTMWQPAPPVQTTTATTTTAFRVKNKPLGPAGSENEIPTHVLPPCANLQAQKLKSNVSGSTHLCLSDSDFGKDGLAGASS
As to the kind of experiment: displaceable equilibrium binding of 125I-rGDNF to recombinant soluble rGDNFRα; Scatchard inset of Fig. 6B.

Assay [2] addresses T2, rat NTNRα-IgG (soluble rNTNRα, product of pRK-rNTNRα-IgG) (rat).
T2 construct: Used as conditioned medium of transiently transfected 293 cells; also called soluble rNTNRα protein; rat fusion protein
The experiment in a line: binding experiments with biotinylated ligand, format not described.

The target in assay [3] is T2, rat NTNRα-IgG (soluble rNTNRα, product …). The experiment in a line: equilibrium binding of 125I-NTN with cold ligand to soluble NTNRα-IgG, protein A Sepharose precipitation, IGOR fit.
Assay [4] addresses T3, human NTNRα-IgG (soluble human NTNRα, product of pRK-hNTNRα-IgG) (human).
T3 construct: Used as conditioned medium of transiently transfected 293 cells; also called recombinant soluble human NTNRα; hNTNRα fusion
As to the kind of experiment: equilibrium binding of 125I-NTN with cold ligand to soluble NTNRα-IgG, protein A Sepharose precipitation, IGOR fit (data not shown).

The target in assay [5] is T2, rat NTNRα-IgG (soluble rNTNRα, product …). As to the kind of experiment: equilibrium binding of 125I-NTN with cold ligand to soluble NTNRα-IgG, protein A Sepharose precipitation, IGOR fit; Scatchard inset of Fig. 6C.

B1: rat GDNF (ligand, UniProt Q07731 78-211, looked up)
chain: SPDKQAAALPRRERNRQAAAASPENSRGKGRRGQRGKNRGCVLTAIHLNVTDLGLGYETKEELIFRYCSGSCEAAETMYDKILKNLSRSRRLTSDKVGQACCRPVAFDDDLSFLDDSLVYHILRKHSAKRCGCI
modifications: 125I: iodinated either on tyrosine by the Bolton Hunter method or on lysine using lactoperoxidase
notes: also called rGDNF
In general, Kd refers to the concentration at which binding is half-saturated. On to B1, for which the Kd in assay [1] is 3 pM.

B2: GDNF, species not stated at these places (ligand)
chain: B1 chain
modifications: Biotinylated in the paragraph 22 experiment; natural form is a disulfide-linked homodimer
notes: also called biotinylated GDNF
On to B2, for which, in assay [2], the Kd was above 1000 µM.

B3: human Neurturin (ligand, UniProt Q99748 96-197, looked up)
chain: ARLGARPCGLRELEVRVSELGLGYASDETVLFRYCAGACEAAARVYDLGLRRLRQRRRLRRERVRAQPCCRPTAYEDEVSFLDAHSRYHTVHELSARECACV
modifications: 125I-labelled in the direct binding assays; unlabelled as cold competitor
notes: also called human NTN; hNTN
On to B3, for which the Kd in assay [3] and in assay [4] was around 0.01 nM in each case.

B4: mouse Neurturin (ligand, UniProt P97463 96-195, looked up)
chain: PGARPCGLRELEVRVSELGLGYTSDETVLFRYCAGACEAAIRIYDLGLRRLRQRRRVRRERARAHPCCRPTAYEDEVSFLDVHSRYHTLQELSARECACV
modifications: 125I-labelled in the direct binding assays; unlabelled as cold competitor
notes: also called mouse NTN; mNTN
B4: the Kd in assay [4] and in assay [5] was around 0.01 nM each time.
